From the DeepSol protein solubility set

Experiment: soluble on expression in E. coli; label from the status in PepcDB or PDB records

Row | Sequence | soluble on expression in E. coli
1 | MKPHFRNTVERMYRDTFSYNFYNRPILSRRNTVWLCYEVKTKGPSRPPLDAKIFRGQVYSELKYHPEMRFFHWFSKWRKLHRDQEYEVTWYISWSPCTKCTRDMATFLAEDPKVTLTIFVARLYYFWDPDYQEALRSLCQKRDGPRATMKIMNYDEFQHCWSKFVYSQRELFEPWNNLPKYYILLHIMLGEILRHSMDPPTFTFNFNNEPWVRGRHETYLCYEVERMHNDTWVLLNQRRGFLCNQAPHKHGFLEGRHAELCFLDVIPFWKLDLDQDYRVTCFTSWSPCFSCAQEMAKFISKNKHVSLCIFTARIYDDQGRCQEGLRTLAEAGAKISIMTYSEFKHCWDTFVDHQGCPFQPWDGLDEHSQDLSGRLRAILQNQEN | soluble
2 | MGSDKIHHHHHHMENRITLRHLEAFRAIMVRKSVTGAAEMLEVTQPVVTRLIADLEERIALTLFTRTKGRLVPTPEAALLVKDVEQSLLSIERIANAATNIKSLKMGRLEIAASPNMALSFLPRAINSFTLAHPEAHVSMRMHSSPTVLDMVQRDQCDLGFAMFPARSTKSGNSETLVSAKMVAVVPKTHALATKRTLRPEHFEGERFISMMPLMESRMRIDSLMLSHGVRRHVNCETQTSAAVLQLVEAGVGISIIDPLTACGYTGTGVKFLNFEPVIRNDYSIVISQRNSSTLILKPFIDHAKREILNMVPAHLLIRS | not soluble
3 | APPSSFSKAKKEAVKIYLDYPTSFYCGCDITWKNKKKGIPELESCGYQVRKQEKRASRIEWEHVVPAWQFGHQRQCWQKGGRKNCTRNDKQFKSMEADLHNLVPAIGEVNGDRSNFRFSQWNGSKGAFYGQCAFKVDFKGRVAEPPAQSRGAIARTYLYMNNEYKFNLSKAQRQLMEAWNKQYPVSTWECTRDERIAKIQGNHNQFVYKAC | soluble
4 | MHHHHHHSSGVDLGTENLYFQSMVPPIPKQDGGEQNGGMQCKPYGAGPTEPAHPVDERLKNLEPKMIELIMNEIMDHGPPVNWEDIAGVEFAKATIKEIVVWPMLRPDIFTGLRGPPKGILLFGPPGTGKTLIGKCIASQSGATFFSISASSLTSKWVGEGEKMVRALFAVARCQQPAVIFIDEIDSLLSQRGDGEHESSRRIKTEFLVQLDGATTSSEDRILVVGATNRPQEIDEAARRRLVKRLYIPLPEASARKQIVINLMSKEQCCLSEEEIEQIVQQSDAFSGADMTQLCREASLGPIRSLQTADIATITPDQVRPIAYIDFENAFRTVRPSVSPKDLELYENWNKTFGCGK | soluble
5 | MNRLLQQSVSRGPLAVRASSTITTKPPTPNQITKNNAQFDKVTHTGQAWDQSDYRLQRFDISKKSVNPNVAMHLIDQRPPEDCGDKRVVFCDGGHPALGHPKVYINLDKPGVHACGYCGNRFYNSHATKAEDMKIQHLNC | not soluble
6 | MDSTMTNYMGQENLPPALKLINDKSYQYSTHKHNIETSNDGTLHSYTIVLSREPLESPTSYNKYQKNVEPVQKENQKPKDLNKMTAGPHIAVKNSSGLVSQISSTTSSERKRRTLARPSSSSESDLKVGNIQQSNQYFTLPSVMKPSALSTEDPKKVIVQSNTSSSSMSDASSKKSLPTYTYLSGHTTGSARYVTMVNVKFLLLHCDVLQRRAQSMFTDEFPSDCRLEEVVINFHQLCCRQLLDQNFNPRLSYCIGELNYSDSKPVSANDMSKTLAQLATTQSIAQLSIIVDVTEKNMKLK | not soluble
7 | MGMELILREWMGKEKDYSISYSTYMNLVLYTEGHGYYMKEREKIGRQGDFFTSSNVSSVFAKTFAKLFIRLVENGEVASNICEVGGGTGKFAYDVLQEWKQLSPNTFINLNYSMIEVSPFHRKLQQEQLGSFSNVSYYTSYSEMGDSFEGILFSNELFDAFPVEVIEKRNGILYEVRITYTEEGNLSEVCRPLNKRIGRYLLKYNIHIAEGQRFEVPIVMEEYIKEISKWFQKGICITVDYGYTKEEWMHPAHREGSLRGYYQHKLMRNPLAHPGEMDLTTHVHWDELKEMFSMQGMSAVWHKKQSEFLLAAGILEQLTSHQDTNPFSETQKQNRAVRSMILNGGVGSSFDVVIHTKDMQHLHLDQYVTILEHHHHHH | soluble
8 | MGSDKIHHHHHHLRALGYQGRDVEVVALNDAQYLVAACDSCGAIGEKELDAVKVPWRVTGRMTARVALLEVLAVGAVPQMLSIAIANEPLPAGEEIMKGVREELKAMNLLSLPAAVSTEKNMPTEQTGLGITVIGLCDQDKLRIGRARPGNSLFCLGLPKVGTEAADPEDPDILQGIHLIQLLNIPGVYDIIPVGSQGIRGEAEALAQAVGARFGEDSQCRLDINKSAGPSTCLIFTAAEDIELGDFGKLPIHKIGRLEEDGGGGLLTENED | not soluble
9 | MSLVTRSVLKFGGSSVSDFTKIKRIAEMLKERVNQDEQLIVVVSAMGNTTDQLMTNVSTLTKAPKQQELALLLTTGEQQTVSYLSMVLNDIGVNAKAMTGYQAGIKTIGHHLKSKIAQINPQTFEQAFQENDILVVAGFQGINEHQELTTLGRGGSDTTAVALAVSNQIPCEIYTDVDGVYATDPRLLPKAKRLDIVSYEEMMEMSALGAGVLETRSVELAKNYNIPLYLGKTLSNVKGTWIMSNEEILEKKAVTGVALDKHMMHVTISYPLPDNQLLTQLFTELEEGAVNVDMISQIVNLDGLQLSFTIKDSDFHQISMILETLKNQYEALAYKINEHYVKISLIGSGMRDMSGVASKAFLTLIENNIPFYQTTTSEISISYVIDDFNGQQAVEKLYDAFNIEGHHHHHH | soluble
10 | MFKNEDAKATGTSEMAPALVAAFGGKENITNLDACITRLRVSVADVSKVDQAGLKKLGAAGVVVAGSGVQAIFGTKSDNLKTEMDEYIRNFGSRSHHHHHH | soluble
11 | MACRQEPQPQGPPPAAGAVASYDYLVIGGGSGGLASARRAAELGARAAVVESHKLGGTCVNVGCVPKKVMWNTAVHSEFMHDHADYGFPSCEGKFNWRVIKEKRDAYVSRLNAIYQNNLTKSHIEIIRGHAAFTSDPKPTIEVSGKKYTAPHILIATGGMPSTPHESQIPGASLGITSDGFFQLEELPGRSVIVGAGYIAVEMAGILSALGSKTSLMIRHDKVLRSFDSMISTNCTEELENAGVEVLKFSQVKEVKKTLSGLEVSMVTAVPGRLPVMTMIPDVDCLLWAIGRVPNTKDLSLNKLGIQTDDKGHIIVDEFQNTNVKGIYAVGDVCGKALLTPVAIAAGRKLAHRLFEYKEDSKLDYNNIPTVVFSHPPIGTVGLTEDEAIHKYGIENVKTYSTSFTPMYHAVTKRKTKCVMKMVCANKEEKVVGIHMQGLGCDEMLQGFAVAVKMGATKADFDNTVAIHPTSSEELVTLR | soluble
12 | MVVEENCSMHHLERELDLELEIDMAMECAPIGRTIKSALLRAQSEARVIVGLSAAINVLSKSPEGSLFCLMAQPKDGDSATHMHEVLLEAFCYENDIYVIKVDDATKLSRILGQDSVESCCLVQKVWADAPEEQLTKAENQLVDYCEAHWDAPQQPIVQLPAV | not soluble
13 | MGSDKIHHHHHHLGNNAPRIIDFADSKGKGIIKYRYASMGAGQASSFQKKFTGKEPVEKIQHYLHVVFKEQLGKLYTAKTHEKMNLLSYYEFDNISAGKLKASIGNVYQGNIEANEFILHANSFPNPLNFYKNDLDTYLKNNNMYAFQSYVHGDLNGANIIIDAQDNVWIIDFFHTHRGHVLKDLVKLENDLLYIFSEMHSESDFQEALKISEVLFAVSDLQASLPDITQTGITKPSFVRVYKTLSYLRSLYSDLVEWDRNPLQVFIAQLRYSMHSLIFDECNQWQKEWALYNSGKFSQIISNKFLETDKLRIDFIKSDKIDAHSLALTILPGRKDYSRDLSEDLKEIKEQQIDCVVSLITKDEMDMYGVPELLDVYKKQGVECLHVPVIDQKIPVKAEIERINAFINAQQKKHKKVLIHCVGGLGRSGLVAACYLKSLGYPSDDAIKIVREARSSRAIESTEQEKFVYDYNERTV | not soluble
14 | MQVCRQWVTLSLYNNGKWPKMKYQQLENLECGWKWQYLINKWKDGEPVTRYIDKSEIEAAVQKLRAIEHEPTHVLSWIEEHMSSELDNKLKQAIRAKRKRHFNAEQIHTRKKSIDLDYRVWEKLSLKANELGCTLSDAIEYLLSEASRSEKASKTVNSLKEDLSRLLAE | not soluble
15 | MAHHHHHHMLRITPSRYASKVTAGNAKNQAGSPRQKAKLFHVIPGTPVTPVEKLKEQRRRFGQDRYSRQPEYRPGRNVRMDPNTFTLYATTKGVMTIRTSRINPSYKWLDVEPDIQKVYRSRCMRAALQARGKASMMVAGNVHYRAELDHVTEPHWRERVMRVPKATERFQDPNYFTRGLVPSLRPLSRYSYE | soluble
